Assay [1] relates to human CD34+ cells. Kind of assay: Cell growth curve of edited CD34+ cells. The format is cell-based.
In assay [2] the test system is HDR-edited human cells in NSG mice. Kind of assay: Barcoding-based clonal tracking of edited cells in transplanted NSG mice. It counts as in vivo. As to conditions: AAVS1; FIG. 12E. The text has this: The barcoded AAV6 donor template targeting the AAVS1 locus was obtained by subcloning the degenerated sequence into the previously reported AAVS1 AAV6 transfer vector plasmid downstream of the polyadenylation sequence. Briefly, a ssODN embedding the random sequence flanked by the unique cloning restriction sites (Bsu36l and Sphl) was obtained from Sigma Aldrich. The degenerated region was designed to avoid any undesired cutting by cloning restriction enzymes. To generate the complementary strand, 50 pmol of the ssODN were amplified with 10 cycles of PCR with Easy-A High-Fidelity enzyme (Agilent Technologies) using the appropriate forward and reverse primers according to the manufacturer's instructions. The amplified product was purified with MinElute PCR Purification kit (QIAGEN), digested with the restriction enzymes and checked by capillary electrophoresis. 2 μg of the Bsu36l/Sphl-digested AAVS1 HDR donor template were ligated with the digested insert (molar ratio 1:7) using T4 DNA Ligase (NEB) by scaling up the manufacturer's protocol. […]
PCR amplicons for each individual sample were generated by one-step PCR using Taq G2 Hot Start Polymerase (Promega). […] PCR library amplicons were separately purified using MinElute PCR Purification kit (QIAGEN) and quality was assessed by Agilent Tapestation (Agilent Technologies). […]

Assay [3] has as its system human CD34+ cells transplanted into NSG mice. Kind of assay: Xenotransplantation of edited human CD34+ cells in NSG mice. As to conditions: limit cells dose T0eq=1×10^5/mouse; FIG. 19A. The format is in vivo.
The subject of assay [4] is p53-target genes (CDKN1A, PHLDA3, RPS27L, APOBEC3H). As to the kind of experiment: TaqMan expression of p53-target genes in edited CD34+ cells. As to conditions: 24 hrs after electroporation; FIG. 3B. The format is cell-based, human. The source says:
For gene expression analyses, total RNA was extracted using the RNeasy Plus Micro Kit (QIAGEN). cDNA was synthetized with SuperScript VILO IV cDNA Synthesis Kit (Invitrogen) and used for Q-PCR in a Viia7 Real-time PCR thermal cycler using TaqMan Gene Expression Assays (Applied Biosystems) mapping to CDKN1A, RPS27L, PHLDA3, APOBEC3H, and HPRT as normalizer. The relative expression of each gene was first normalized to HPRT expression and then represented as fold change relative to the mock-treated sample.
A general note: In qPCR the cycle at which signal appears reflects the starting amount.

B1: GSE56: p53 dominant negative peptide (SEQ ID No. 9), transiently overexpressed from electroporated mRNA (protein)
chain: MDGWCPGRDRRTEEENFRKKEEHCPELPPGSAKRALPTSTSSSPQQKKKPLDGEYFTLKIRGRERFEMFRELNEALELKDARAAEESGDSRAHSSYPKIVS
modifications: amino acid sequence of GSE56
Take B1: the “expansion of treated HSPC” value in assay [1] (AAVS1 edited cells, FIG. 3D) is “higher expansion”. In addition, the “cell growth compared to standard RNP+AAV6” value in assay [1] (days post-editing, FIG. 14B) was “about 2 fold”. In addition, in assay [2], the “number of dominant clones in haematopoietic organs, vs standard” value stood at 6.5 fold. In addition, the “engraftment of treated cells compared to standard protocol” value in assay [3] is recorded as 5-6 fold. Moreover, the “amplitude of the p53-dependent transcriptional response (downstream target genes)” value in assay [4] was “reduce the amplitude of the p53-dependent transcriptional response”.

(Values after patent US12558435B2, “Transient inhibition of p53 in gene therapy” (Ospedale San Raffaele S.R.L., priority 2018, dated 2026).)
